Assay results from the supplement of paper PMC11246515.
± gives the standard deviation of the averaged measurements.

Assay: total protein half-life in vivo (active degradation + dilution); higher = more stable protein
[1] = E. coli NCM3722 delta-clpP, growth: N-lim chemostat, doubling time 6 h
[2] = E. coli NCM3722 delta-hslV, growth: N-lim chemostat, doubling time 6 h
[3] = E. coli NCM3722 delta-lon, growth: N-lim chemostat, doubling time 6 h
[4] = E. coli NCM3722 delta-smpB, growth: N-lim chemostat, doubling time 6 h
[5] = wild type E. coli NCM3722, growth: C-lim chemostat, doubling time 3 h
[6] = wild type E. coli NCM3722, growth: C-lim chemostat, doubling time 6 h
[7] = wild type E. coli NCM3722, growth: C-lim chemostat, doubling time 12 h
[8] = wild type E. coli NCM3722, growth: N-lim chemostat, doubling time 6 h
[9] = wild type E. coli NCM3722, growth: N-lim chemostat, doubling time 12 h
[10] = wild type E. coli NCM3722, growth: P-lim chemostat, doubling time 6 h
[11] = wild type E. coli NCM3722, growth: P-lim chemostat, doubling time 12 h
[12] = E. coli NCM3722 delta-clpP delta-lon delta-hslV, growth: N-lim chemostat, doubling time 6 h

Sequence | total protein half-life in vivo [1] [h] | total protein half-life in vivo [2] [h] | total protein half-life in vivo [3] [h] | total protein half-life in vivo [4] [h] | total protein half-life in vivo [5] [h] | total protein half-life in vivo [6] [h] | total protein half-life in vivo [7] [h] | total protein half-life in vivo [8] [h] | total protein half-life in vivo [9] [h] | total protein half-life in vivo [10] [h] | total protein half-life in vivo [11] [h] | total protein half-life in vivo [12] [h]
MKAIDNQIRNISSSHQDKHSDKVNSHQHHGKVDKTHRAKIVEFDKLDNDSQIDNDFGLHIIYFLQHGHWKVNDRSHQMEKVWFYNSEPSIDIQEYNRFADNTTDTFIFTIIPDNNHVLKLSSPITVTVECKGGYYFINSSGDKSDIIYKVDGLSIIARNFFTLLSGNFKPDWRWDVSKETFTKEKFDSYVKSVFSKIDFYKQCGVINPQNANTAYFGDTDGRVGAVLYALLVSGHIGIREKGWSLLCELLKHEEMASSAYKHKNNKVLYDLLNTRDMILNELHQHVFLKDDAITPCIFLGDHTGDRFSTIFGDKYILTLLNSMRNMEGNKDSRINKNVVVLAGNHEINFNGNYTARLANHKLSAGDTYNLIKTLDVCNYDSERQVLTSHHGIIRDEEKKCYCLGALQVPFNQMKNPTDPEELANIFNKKHKEHMDDPLFHLIRSNTLKPTPVYANYFDNTTDFRPARERIFICGETLKGEDPSKYIRQKYGHHGPGVDHNQQFDNGIMGLNSLKEARDKNNKIIYSSGLSCFQLH | 2.18 ± 0.21 | 2.35 ± 0.097 | 2.82 | 2.53 | 2.6 ± 0.029 | 4.34 ± 0.27 | 6 | 2.27 ± 0.28 | 3.75 | 5.32 ± 0.097 | 8.76 ± 0.24 | –
MKKIWLALAGLVLAFSASAAQYEDGKQYTTLEKPVAGAPQVLEFFSFFCPHCYQFEEVLHISDNVKKKLPEGVKMTKYHVNFMGGDLGKDLTQAWAVAMALGVEDKVTVPLFEGVQKTQTIRSASDIRDVFINAGIKGEEYDAAWNSFVVKSLVAQQEKAAADVQLRGVPAMFVNGKYQLNPQGMDTSNMDVFVQQYADTVKYLSEKK [P0AEG4] | 5.05 ± 0.36 | 6.08 ± 0.13 | 6.83 ± 0.3 | 6.24 ± 0.57 | 3.03 ± 0.28 | 5.32 ± 0.28 | 8.77 ± 2.3 | 5.73 ± 0.14 | 11.62 ± 0.096 | 5.665 ± 0.0088 | 11.5 ± 1 | 5.32 ± 0.12
MQEIMQFVGRHPILSIAWIALLVAVLVTTFKSLTSKVKVITRGEATRLINKEDAVVVDLRQRDDFRKGHIAGSINLLPSEIKANNVGELEKHKDKPVIVVDGSGMQCQEPANALTKAGFAQVFVLKEGVAGWAGENLPLVRGK [P0AG27] | 6.89 ± 0.76 | 6.06 ± 0.078 | 5.77 ± 1 | 5.7 ± 0.28 | 3.71 ± 0.18 | – | 10.9 ± 1.4 | 5.96 ± 0.49 | – | 6.47 ± 0.095 | – | 5.92 ± 0.38
MLKRLLKRPSLNLLAWLLLAAFYISICLNIAFFKQVLQALPLDSLHNVLVFLSMPVVAFSVINIVLTLSSFLWLNRPLACLFILVGAAAQYFIMTYGIVIDRSMIANIIDTTPAESYALMTPQMLLTLGFSGVLAALIACWIKIKPATSRLRSVLFRGANILVSVLLILLVAALFYKDYASLFRNNKELVKSLSPSNSIVASWSWYSHQRLANLPLVRIGEDAHRNPLMQNEKRKNLTILIVGETSRAENFSLNGYPRETNPRLAKDNVVYFPNTASCGTATAVSVPCMFSDMPREHYKEELAQHQEGVLDIIQRAGINVLWNDNDGGCKGACDRVPHQNVTALNLPDQCINGECYDEVLFHGLEEYINNLQGDGVIVLHTIGSHGPTYYNRYPPQFRKFTPTCDTNEIQTCTKEQLVNTYDNTLVYVDYIVDKAINLLKEHQDKFTTSLVYLSDHGESLGENGIYLHGLPYAIAPDSQKQVPMLLWLSEDYQKRYQVDQNCLQKQAQTQHYSQDNLFSTLLGLTGVETKYYQAADDILQTCRRVSE | – | 6.05 ± 0.36 | 6.41 ± 0.43 | 6.19 ± 0.59 | 3.22 ± 0.046 | 6.12 ± 0.22 | 10.7 ± 1.6 | 6.42 ± 0.21 | 12.3 ± 0.34 | 6.03 ± 0.31 | 13 ± 0.68 | 7.04 ± 1.1
MNNNDLFQASRRRFLAQLGGLTVAGMLGPSLLTPRRATAAQAATDAVISKEGILTGSHWGAIRATVKDGRFVAAKPFELDKYPSKMIAGLPDHVHNAARIRYPMVRVDWLRKRHLSDTSQRGDNRFVRVSWDEALDMFYEELERVQKTHGPSALLTASGWQSTGMFHNASGMLAKAIALHGNSVGTGGDYSTGAAQVILPRVVGSMEVYEQQTSWPLVLQNSKTIVLWGSDLLKNQQANWWCPDHDVYEYYAQLKAKVAAGEIEVISIDPVVTSTHEYLGREHVKHIAVNPQTDVPLQLALAHTLYSENLYDKNFLANYCVGFEQFLPYLLGEKDGQPKDAAWAEKLTGIDAETIRGLARQMAANRTQIIAGWCVQRMQHGEQWAWMIVVLAAMLGQIGLPGGGFGFGWHYNGAGTPGRKGVILSGFSGSTSIPPVHDNSDYKGYSSTIPIARFIDAILEPGKVINWNGKSVKLPPLKMCIFAGTNPFHRHQQINRIIEGLRKLETVIAIDNQWTSTCRFADIVLPATTQFERNDLDQYGNHSNRGIIAMKQVVPPQFEARNDFDIFRELCRRFNREEAFTEGLDEMGWLKRIWQEGVQQGKGRGVHLPAFDDFWNNKEYVEFDHPQMFVRHQAFREDPDLEPLGTPSGLIEIYSKTIADMNYDDCQGHPMWFEKIERSHGGPGSQKYPLHLQSVHPDFRLHSQLCESETLRQQYTVAGKEPVFINPQDASARGIRNGDVVRVFNARGQVLAGAVVSDRYAPGVARIHEGAWYDPDKGGEPGALCKYGNPNVLTIDIGTSQLAQATSAHTTLVEIEKYNGTVEQVTAFNGPVEMVAQCEYVPASQVKS | – | – | 7.84 | 5.54 | 3.3 ± 0.074 | 4.64 ± 2.7 | 13.2 ± 1.9 | 7.02 ± 0.15 | 14 ± 1.4 | 6.85 ± 0.67 | 12.6 ± 0.63 | –
MSDMHSLLIAAILGVVEGLTEFLPVSSTGHMIIVGHLLGFEGDTAKTFEVVIQLGSILAVVVMFWRRLFGLIGIHFGRPLQHEGESKGRLTLIHILLGMIPAVVLGLLFHDTIKSLFNPINVMYALVVGGLLLIAAECLKPKEPRAPGLDDMTYRQAFMIGCFQCLALWPGFSRSGATISGGMLMGVSRYAASEFSFLLAVPMMMGATALDLYKSWGFLTSGDIPMFAVGFITAFVVALIAIKTFLQLIKRISFIPFAIYRFIVAAAVYVVFF | > 8 | – | 6.08 | 5.89 | > 4 | – | 11.9 | – | – | 6.83 ± 0.96 | – | –
